Source: US10428140B2, “Anti-EphA4 antibody” (EISAI R&D MANAGEMENT CO., LTD., priority 2015, dated 2019)
Substitutions are numbered along the chain they refer to.

B1: 69 (antibody, V domains shown)
VH: QIQLVQSGSELKKPGASVKVSCKASGYTFTDYSMHWVRQAPGQGLKWMGWINTETGEPTYADDFKGRFVFSLDTSVSTAYLQISSLKAEDTAVYYCARIPLYYYGSRYWYFDVWGQGTTVTVSS
VL: DIQMTQSPSSLSASVGDRVTITCRASENIYRNLAWYQQKPGKAPKLLVYAATNLADGVPSRFSGSGSGTDYTLTISSLQPEDFATYYCQHFWGTPWTFGQGTKVEIK
modifications: synthetic humanized antibody heavy chain variable region sequence; synthetic humanized antibody light chain variable region sequence
B2: 82 (antibody, V domains shown)
VL: B1 VL with V48L, P80S
VH: B1 VH with I2V, D62Q, D63G, K65T
modifications: constant regions without entry; synthetic humanized antibody light chain variable region sequence; synthetic humanized antibody heavy chain variable region sequence
B3: 88 (antibody, V domains shown)
VL: B1 VL with K45Q, V48L
VH: B1 VH with I2V, D62Q, D63G, K65T
modifications: constant regions without entry; synthetic humanized antibody light chain variable region sequence; synthetic humanized antibody heavy chain variable region sequence
B4: 89 (antibody, V domains shown)
VL: B1 VL with K45Q, V48L
VH: B1 VH with D62Q, D63G, K65T
modifications: constant regions without entry; synthetic humanized antibody light chain variable region sequence; synthetic humanized antibody heavy chain variable region sequence
B5: 84 (antibody, V domains shown)
VL: B1 VL with V48L, P80S
VH: B1 VH with I2V, K46E
modifications: constant regions without entry; synthetic humanized antibody light chain variable region sequence; synthetic humanized antibody heavy chain variable region sequence
B6: 86 (antibody, V domains shown)
VL: B1 VL with V48L, P80S
VH: B1 VH
modifications: constant regions without entry; synthetic humanized antibody light chain variable region sequence; synthetic humanized antibody heavy chain variable region sequence
B7: 136 (antibody, V domains shown)
VH: B1 VH with I2V
VL: EIVMTQSPATLSVSPGERATLSCRASENIYRNLAWYQQKPGQSPRLLIYAATNLADGIPARFSGSGSGTEYTLTISSLQSEDFAVYYCQHFWGTPWTFGQGTKVEIK
modifications: synthetic humanized antibody heavy chain variable region sequence; synthetic humanized antibody light chain variable region sequence
B8: 83 (antibody, V domains shown)
VL: B1 VL with V48L, P80S
VH: B1 VH with D62Q, D63G, K65T
modifications: constant regions without entry; synthetic humanized antibody light chain variable region sequence; synthetic humanized antibody heavy chain variable region sequence
B9: 81 (antibody, V domains shown)
VL: B1 VL with V48L, P80S
VH: B1 VH with I2V, K46E, D62Q, D63G, K65T
modifications: constant regions without entry; synthetic humanized antibody light chain variable region sequence; synthetic humanized antibody heavy chain variable region sequence
B10: 87 (antibody, V domains shown)
VL: B1 VL with K45Q, V48L
VH: B1 VH with I2V, K46E, D62Q, D63G, K65T
modifications: constant regions without entry; synthetic humanized antibody light chain variable region sequence; synthetic humanized antibody heavy chain variable region sequence
B11: 156 (antibody, V domains shown)
VH: B1 VH with D62Q, D63G, K65T
VL: B1 VL with K45Q, V48L
modifications: synthetic humanized antibody heavy chain variable region sequence; synthetic humanized antibody light chain variable region sequence
B12: 85 (antibody, V domains shown)
VL: B1 VL with V48L, P80S
VH: B1 VH with I2V
modifications: constant regions without entry; synthetic humanized antibody light chain variable region sequence; synthetic humanized antibody heavy chain variable region sequence
B13: antibody A: mouse anti-EphA4 monoclonal antibody, IgG1/κ; heavy chain variable region SEQ ID NO: 11, light chain variable region SEQ ID NO: 13 (antibody, listed as Mus musculus, V domains shown)
VH: QIQLVQSGPELKKPGETVKISCKASGYTFTDYSMHWVKQAPGKGLKWMGWINTETGEPTYADDFKGRFAFSLETSASTAYLQINNLKNEDTATYFCARIPLYYYGSRYWYFDVWGAGTTVTVSS
VL: DIQMTQSPASLSVSVGETVTITCRASENIYRNLAWYQQKQGKSPQLLVYAATNLADGVPSRFSGSGSGTQYSLKINSLQSEDFGSYYCQHFWGTPWTFGGGTKLEIK

Experiments:
[1] = biological target: T1, human EphA4 (Homo sapiens, UniProt P54764); assay: Affinity of humanized antibodies by SPR (Biacore T200); format: binding; conditions: human EphA4 extracellular region-SEAP-His; for ka / kd: 1:1 binding model; for Kd: KD=kd/ka
T1 construct: made in house; not restated for the human SEAP-His protein
Experimental: The binding affinity of each anti-EphA4 monoclonal humanized antibody obtained in Example 16 for human EphA4 was determined by surface plasmon resonance (SPR) using Biacore T200 (GE Healthcare). First, for the assay of antibody A, a rat anti-mouse IgG1 antibody produced with a conventional method by immunizing rat with mouse IgG1 antibody was immobilized on sensor chip CM5. The immobilization of the rat anti-mouse IgG1 antibody on sensor chip CM5 was performed by the amine coupling method using N-hydroxysuccinimide (NHS) and N-ethyl-N′-(3-dimethylaminopropyl)carbodiimide hydrochloride (EDC). Ethanolamine was used in blocking (the sensor chip and the reagents for immobilization were all manufactured by GE Healthcare). The antibody was diluted with a buffer solution for immobilization (10 mM sodium acetate, pH 4.5) and immobilized on the sensor chip according to the protocol attached to Biacore T200. For the assay of each humanized monoclonal antibody, a protein A chip (GE Healthcare, 29-1383-03) was used. Antibody A or the humanized monoclonal antibody was diluted with a running buffer solution HBS-EP (GE Healthcare), injected onto only flow cell 2 for 120 seconds, and captured (captured amount: approximately 30 to 60 RU). Subsequently, human EphA4 extracellular region-SEAP-His protein serially diluted in the range of 50, 16.7, 5.6, 1.9, and 0.6 nM using HBS-EP was sequentially added from the lower toward higher concentration sides without regeneration operation. Binding reaction curves were sequentially observed at the time of the addition (association phase, for 120 sec) and after the completion of the addition (dissociation phase, for 900 sec). After the completion of each observation, the sensor chip was regenerated by the addition of 3 M MgCl2 (for 60 sec) or 10 mM Glycine-HCl pH 1.5 (for 30 sec). The obtained binding reaction curves were subjected to fitting analysis with 1:1 binding models using software BIA evaluation attached to the system to calculate the affinity (KD=kd/ka) for human EphA4 (Table 6).

[2] = biological target: T2, human EphA4 (binding to human Ephrin A5) (Homo sapiens, UniProt P54764); assay: Human EphA4-human ligand binding inhibition ELISA of humanized antibodies (biotinylated Ephrin A5-Fc); conditions: biotinylated human Ephrin A5-Fc 0.7 nM
T2 construct: made in house; not restated for the human SEAP-His protein
Experimental: Each anti-EphA4 monoclonal humanized antibody obtained in Example 16 was evaluated for its inhibitory activity against the binding between human EphA4 and its human ligand according to the following steps. Each well of a 96-well plate (Nunc) was coated with an anti-alkaline phosphatase antibody (Thermo Fisher Scientific). After incubation overnight at 4° C., each well was blocked with 1% BlockAce (DS Pharma Biomedical) at room temperature for 1 hour. After washing with 0.05% Tween 20/PBS (Thermo Fisher Scientific) three times, the human EphA4 extracellular region-SEAP-His protein obtained by the method of Example 2 was added (final concentration: 10 nM) to each well and incubated at room temperature for 1 hour. After washing three times, a ligand and each serially diluted humanized antibody of antibody A (0, 0.003, 0.01, 0.03, 0.1, 0.3, 1, 3, 10, 30, 100, 300, 1000, and 3000 nM) were added to each well. The ligand used was biotinylated human Ephrin A5-Fc chimera (R&D Systems, final concentration: 0.7 nM). After incubation at room temperature for 1 hour and subsequent washing three times, horseradish peroxidase-labeled streptavidin (GE Healthcare) was added thereto and incubated at room temperature for 1 hour. After washing three times, a TMBZ (3,3′,5,5′-tetramethylbenzidine, Sigma-Aldrich) solution was added to each well and incubated at room temperature for 2 minutes. An equal amount of a reaction stopping solution (1N H2SO4, Wako Pure Chemical Industries) was added to each well. The absorbance at 450 nm was read using a microplate reader (PerkinElmer).

T1 sequence (P54764 20-547): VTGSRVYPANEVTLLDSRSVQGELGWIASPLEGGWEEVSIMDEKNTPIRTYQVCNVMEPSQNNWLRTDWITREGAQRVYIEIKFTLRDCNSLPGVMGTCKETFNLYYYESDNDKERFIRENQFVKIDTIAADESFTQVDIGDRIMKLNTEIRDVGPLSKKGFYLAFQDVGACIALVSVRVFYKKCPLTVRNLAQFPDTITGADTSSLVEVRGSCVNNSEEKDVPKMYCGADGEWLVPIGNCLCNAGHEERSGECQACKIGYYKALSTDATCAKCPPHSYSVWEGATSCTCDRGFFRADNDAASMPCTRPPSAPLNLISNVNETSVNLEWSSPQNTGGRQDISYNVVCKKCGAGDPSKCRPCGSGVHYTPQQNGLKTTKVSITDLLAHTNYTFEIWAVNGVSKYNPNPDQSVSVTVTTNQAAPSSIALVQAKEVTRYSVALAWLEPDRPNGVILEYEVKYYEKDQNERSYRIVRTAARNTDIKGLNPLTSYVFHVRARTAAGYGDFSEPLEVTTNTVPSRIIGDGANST
T2 sequence (P54764 20-547): as above

Molecule	ka [1]	kd [1]	Kd [1]	IC50 [2]
B1	340000 M⁻¹ s⁻¹	0.00037 s⁻¹	1.1 nM	3.1 nM
B2	290000 M⁻¹ s⁻¹	0.00046 s⁻¹	1.6 nM	4.1 nM
B3	300000 M⁻¹ s⁻¹	0.00042 s⁻¹	1.4 nM	3.6 nM
B4	310000 M⁻¹ s⁻¹	0.00041 s⁻¹	1.3 nM	4.3 nM
B5	350000 M⁻¹ s⁻¹	0.00056 s⁻¹	1.7 nM	4.6 nM
B6	310000 M⁻¹ s⁻¹	0.00046 s⁻¹	1.5 nM	4 nM
B7	–	–	–	2.5 nM
B8	290000 M⁻¹ s⁻¹	0.00054 s⁻¹	1.9 nM	3.7 nM
B9	340000 M⁻¹ s⁻¹	0.00054 s⁻¹	1.6 nM	4 nM
B10	350000 M⁻¹ s⁻¹	0.00051 s⁻¹	1.5 nM	3 nM
B11	–	–	–	2.5 nM
B12	310000 M⁻¹ s⁻¹	0.0005 s⁻¹	1.6 nM	4 nM
B13	420000 M⁻¹ s⁻¹	0.00025 s⁻¹	–	–
